Assay results reported in patent US20240166742A1, “MOLECULES THAT BIND TO AND STABILIZE TRIGGERING RECEPTOR EXPRESSED ON MYELOID CELLS 2 (TREM2)” (Novartis AG, priority 2015, published 2024).
[NapdU] = code of the source, not defined here

Experiments:
[1] = biological target: T1, cell surface human TREM2 on CHO-hTREM2 cells (Homo sapiens, UniProt Q9NZC2); assay: Binding of biotinylated SOMAmers to cellular TREM2 by flow cytometry; format: cell-based; conditions: CHO-hTREM2 vs CHO control cells; on ice; streptavidin-APC detection
T1 construct: expressed in transfected cells; host or cells: CHO cells, stably double transfected (G418 / hygromycin)
T1 sequence (O43914 22-113 partner, one chain of several): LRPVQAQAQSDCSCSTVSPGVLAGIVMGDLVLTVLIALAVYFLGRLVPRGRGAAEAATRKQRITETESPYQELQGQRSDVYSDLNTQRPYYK
Experimental: (§1) A HEK cell line stably expressing a chimeric receptor consisting of TREM2-extracellular domain and DAP12 was first described by Kleinberger et al. 2014. In analogy a TREM-2/DAP12 chimeric receptor expressing cell line was produced according to standard cell culture procedures. CHO cells were sequentially transfected with eukaryotic expression vectors for human DAP12 (hDAP12) and human TREM2 (hTREM2). Resulting CHO-hTREM2/hDAP12 double transfected cells (CHO-hTREM2) were grown in DMEM/F12 medium supplemented with 10% fetal bovine serum 0.2 mg/ml G418 and 0.2 mg/mL hygromycin. Confluent adherent CHO cells were harvested after treatment with cell dissociation buffer (Gibco 13151-014) and cell surface TREM2 was quantified by flow cytometry as described below.
Binding of SOMAmers to cellular TREM2 was assessed by incubation of biotinylated SOMAmers at various concentrations with CHO-hTREM2 cells. In this case binding of SOMAmers to cell surface TREM2 was done on ice for 20-30 min to prevent modulation of cell surface TREM2. […] Cells were thereafter washed with FACS buffer and bound biotinylated SOMAmers were detected via streptavidin-APC conjugate (Biolegend, Inc). Median fluorescence intensities corresponding to the degree of TREM2 SOMAmer bound to cells were acquired on a FacsCalibur flow cytometer and evaluated using FlowJo (Millipore INC).

[2] = biological target: T1, cell surface human TREM2 on CHO-hTREM2 cells; assay: TREM2 surface stabilization by SOMAmers on CHO-hTREM2 cells (flow cytometry); format: cell-based; conditions: 37° C. for 3 hours
Experimental: as §1, with “below. […]” for “below.”
TREM2 SOMAmers were tested for their ability to stabilize or increase cell surface human TREM2, e.g., by modulating homeostatic dynamics of shedding or internalization. […] Cells were then assessed for surface human TREM2 by flow cytometry.

[3] = biological target: T2, cell surface human TREM2 on primary human M2a macrophages (Homo sapiens, UniProt Q9NZC2); assay: TREM2 surface stabilization by SOMAmers on primary human M2a macrophages (flow cytometry); format: cell-based; conditions: 37° C. for 3 hours
T2 construct: Human M2a macrophages were generated from monocytes isolated from buffy coats; endogenous in cells; host or cells: primary human M2a macrophages differentiated from buffy-coat monocytes (MCSF + IL4)
T2 sequence (Q9NZC2 19-230): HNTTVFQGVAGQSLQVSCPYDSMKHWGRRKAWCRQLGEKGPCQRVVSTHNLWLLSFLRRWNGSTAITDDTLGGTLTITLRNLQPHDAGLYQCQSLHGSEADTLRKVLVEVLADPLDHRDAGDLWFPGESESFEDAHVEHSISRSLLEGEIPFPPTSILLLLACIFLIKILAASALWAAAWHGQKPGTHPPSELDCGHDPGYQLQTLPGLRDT
Experimental: Human M2a macrophages were generated from monocytes isolated from buffy coats by negative selection. M2a macrophages were generated by 5-6 days differentiation of monocytes in RPMI (supplemented 10% fetal bovine serum, and typical concentrations of Glutamax, Sodium pyruvate, Non Essential Amino Acids, HEPES) with MCSF 40 ng/mL (R&D) and 50 ng/mL IL4 (R&D). M2a macrophages were harvested with cell dissociation buffer (Gibco 13151-014) and cell surface TREM2 was assessed by flow cytometry as described below.
Cells were stained for TREM2 surface expression in FACS buffer (PBS, containing 10% heat-inactivated human serum AB male (Invitromex), 0.05% w/v sodium azide, 5 mM EDTA, 1 mg/mL Privigen (Mg) in PBS using goat anti-human TREM2 (R&D) or an appropriate isotype control. Cells were counterstained with F(ab)′2 fragments of an rabbit anti-goat IgG polyclonal antibody conjugated with Alexa488 (LifeTechnologies). All stainings were performed on ice for 30 min Cells were assessed for TREM2 surface expression on a BD LSR Fortessa or a FacsCalibur flow cytometer. Median fluorescence intensities corresponding to the degree of anti-TREM2 bound to cells were evaluated using FlowJo (Millipore INC)
TREM2 SOMAmers were tested for their ability to stabilize or increase cell surface human TREM2, e.g., by modulating homeostatic dynamics of shedding or internalization. […]

[4] = biological target: T3, human TREM2 stalk region Peptide 76
T3 chain: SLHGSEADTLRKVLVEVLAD

[5] = biological target: T4, human TREM2 stalk region Peptide 77
T4 chain: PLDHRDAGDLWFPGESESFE

[6] = biological target: T5, human TREM2 stalk region Peptide 78
T5 chain: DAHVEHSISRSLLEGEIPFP

[7] = biological target: T6, human TREM2 stalk region Peptide 79
T6 chain: VEVLADPLDHRD

[8] = biological target: T7, human TREM2 stalk region Peptide 80
T7 chain: ESESFEDAHVEH

“EX83-95HC: control SOMAmer, core sequence SEQ ID NO: 14 (DNA CCCTCCCUAUCGCAAUGACACAUUGGGGUCUCGAGGUGCGCGAUCGAAGA; DNA, [NapdU] at 8, 10, 16, 23, 24, 29, 31, 37, 44, backbone and methylation of C not given here; further chemistry not fully specified)” was tested, and the “binding to cell surface human TREM2” value [1] was “did not bind to cell surface human TREM2”.

For “UX95-90BC: TREM2 SOMAmer (slow off-rate modified aptamer), core sequence SEQ ID NO: 12, P = NapdU modified dUTP residue (DNA CCCTCGAUCCGGUGGCGGAUCCUAAGUAUUGGCCCGGUCCGCCAAGAAGA; DNA, [NapdU] at 8, 13, 20, 23, 27, 29, 30, 38, backbone and methylation of C not given here; further chemistry not fully specified)”, the “cell surface human TREM2 level (stabilization)” value (“cell surface human TREM2 level” for short) [2] was “stabilized and increased cell surface human TREM-2”.

In the case of “KX86-94WC: TREM2 SOMAmer, core sequence SEQ ID NO: 13, P = NapdU modified dUTP residue (DNA CCCTCUGUCAACCUCCACACAGGCCUUUGAUGCAAGUAUACAGUGGAAGA; DNA, [NapdU] at 6, 8, 14, 26, 27, 28, 31, 37, 39, 44, backbone and methylation of C not given here; further chemistry not fully specified)”, the “cell surface human TREM2 level” value [2] is reported as “stabilized cell surface human TREM2” and the “cell surface human TREM2 level” value [3] is reported as “stabilized cell surface human TREM2”.

B1: Human TACE (ADAM-17) recombinant catalytic domain (protein)
chain: RADPDPMKNTCKLLVVADHRFYRYMGRGEESTTTNYLIELIDRVDDIYRNTSWDNAGFKGYGIQIEQIRILKSPQEVKPGEKHYNMAKSYPNEEKDAWDVKMLLEQFSFDIAEEASKVCLAHLFTYQDFDMGTLGLAYVGSPRANSHGGVCPKAYYSPVGKKNIYLNSGLTSTKNYGKTILTKEADLVTTHELGHNFGAEHDPDGLAECAPNEDQGGKYVMYPIAVSGDHENNKMFSNCSKQSIYKTIESKAQECFQERSNKV
For B1, the “TACE cleavage of the Mca-labelled peptide (HPLC/HRMS)” value (shortened to “TACE cleavage … (HPLC/HRMS)”) [4] was “no TACE cleavages were observed for Peptides 76, 79, 77 and 80”, the “TACE cleavage … (HPLC/HRMS)” value [5] was “no TACE cleavages were observed for Peptides 76, 79, 77 and 80” and the “TACE cleavage … (HPLC/HRMS)” value [6] was “For Peptide 78, two main cleavage products by TACE were found: DAHVEH (termed X01, SEQ ID NO: 25) and SISRSLLEGEIPFP (termed X02, SEQ ID NO: 26)”. The “TACE cleavage … (HPLC/HRMS)” value [7] was “no TACE cleavages were observed for Peptides 76, 79, 77 and 80” and the “TACE cleavage … (HPLC/HRMS)” value [8] was “no TACE cleavages were observed for Peptides 76, 79, 77 and 80”.
